The DeepSol protein solubility set

Experiment: soluble on expression in E. coli; label from the status in PepcDB or PDB records

Sequence	soluble on expression in E. coli
MSLTTVRMTIPDDFILGAAASAWQTEGWSGKKPGQDSWPDLWYKNDRHVWHNGYGPAVATDFINRFQEDVQLMKLAGLTHYRTSINWSRFLTDYENVTVDEEYAAYYDQLFDALLANGITPMICLEHYELPGYLLEKYGGWGSKTVVELFVRYAEKVFARYHPKVTRWFTFNEPIVVQTRVYLDALRWPYEQNTSTWMQWNYHKVLATASVVKRFRELGYPGTIGCILNPEVTYPRSRAPHDLRAAEIYDLFYNRMFLDPLVHGVWPPELLALLEQHQVTWETSEEDLAVIREHTVDELGINLYYPHRVKAPSRAWHPHTPFHPAWYYEPFELPGRRMNASRGWEIYPQIIFDMAMRIKNDYRNIPWFVAESGMGVENEGQFRNREGVIDDSYRIRFISEHLWHTLRAREAGANCQGYMLWAFTDNVSPMNAFKNRYGLIEIDLQNHRARRAKASAHWFRQLGERRELVLDEGHHHHHH	soluble
MSLTYEKIKQLRENREITQKEISNALDINVSVYNKIELGIRPLREEELTAIADFFNVSIDYLTGRTDNPTTPSNNQKEAGQNIISHFRLNTNDLSSDDIEELEKELIDFQEFLIKRAKERKEGGSHHHHHH	soluble
MSLTYLIKVLELFSGVGSFSISLNTLGIEHEIVGFSETRKTATQLFCKLHNKKESENLGDVRNVSAKDLDVDLLVFGSPCQSFTRAGKQGGGLKGSDTRSALMWEAVRIMEECKPKWIVWENVPDAISRKNMPNFQNYMDELDSLNYNTYYKVLNAHELGSAQKRKRLFSISIRKDIDNGKFEFLDLTREPKHLETYLENNDEGHHHHHH	soluble
MSLVALTEDTQANANIGRLTVQTVEIADETTAIRCLDWDRERFDIEFGLRNGTTYNSFLIKGEKIALVDTSHRKFEKLYLEIVAGLIDPNTIDYLIVSHTEPDHSGLVKDILQLAPNITIVGAKVAIQFLENMVHQPFKSLQVKSGERLDLGNGHSLEFVSAPNLHWPDTILTYDHKTGILYTCDVFGMHYCDDQTYDENFFAIEEDFKYYYDCLMGPNARSVLAALKRIENLAIKTVATGHGPLLQVHISEWLGRYKNWSLEQAKTETLVALFYAEDYGYSEHLVHILGHGCTKTGVAVELIDLNTAEPQEVRELVTQASGLVIAMPSQYSLTAQAALNTILAAVHHKQAIGLLESGGGEDEPVFPLRNKFQELGLVEAFPPILIKEAPAQTTEQLCEEAGTDIGQWLTRDRTIKQIKSINTDLEKALGRISTGLYIITTKKGEIQGAMFASWVTQASLNPLGVAIAVSKERAIESLMQVGDHFVLNVLEEDNYQGLMKHFLKRFAPGADRFAGIKTYPATDGSPILAESLAYTECEITSRMDCGDHWIIYSTVHVGRVANVHAMTAVHHRKVGNHYEGHHHHHH	soluble
MSLVESLADLEEEKKKNILSSGNGEIDKRLGGGIPLGSLTLIEGENDTGKSVLCQQFVYGGLMSGHNIAYYTTENTIKSFLRQMESLSLDVSDFYAWGYLRVFPVHLEGIDWSTEQMRSILNLVANHIKTIRENIAIIDSLTMFTTYSTEDDVLEFLTRLKNLCDNGKTILITLHQHAFKEDTLVRIRSACDCHLFLRKEQVGDRYVSVLEVSKIRGARKTTGNIVSFEVHPGFGLKIIPVSEARAEGHHHHHH	soluble
MSLVKIKIFVNELLTDVEENTTAYKVRDSYNNKCDVLVLNGYPIKTDMTLCENDKLTLIQKGVKPSLDELESLLIARHTPNIHNKLKKGKVAILGLGGLGSNIAISLARIGVGELLLIDYDVVEPSNLNRQQYFIDDIGKLKTDAMIENIKKINPFIKLNKRDIFLNKNNMDTIKDSDLIIEAFDDASCKAQVCNYVLINLKDKYLIASSGMAGYYDSNIITTKKIKDRFYICGDFVNEAKFGEGLMAPRVAICANHMANLATQILIDMEGHHHHHH	soluble
MSLVNTIGFDREKYIEMQSQHIRERREALGGKLYLEMGGKLFDDMHASRVLPGFTPDNKIAMLDRIKDEVEILVCINAKDLERHKIRADLGISYEEDVLRLVDVFRDRGFLVEHVVLTQLENDNRLALAFIERLQRLGIKVSRHRVIPGYPTDMDRIVSDEGFGLNEYAETTRDLVVVTAPGPGSGKLATCLSQVYHEHKRGVAAGYAKFETFPIWNLPLEHPVNLAYEAATVDLNDANVIDHFHLAAYGEQTVNYNRDVEAFPLLKTLLERLMGESPYQSPTDMGVNMAGNCISDDAACRHASEQEIIRRYFKALVEEARTGKDSTQSDRAAVVMAKAGIKASQRVVVEPARQVEERTSLPGCAIELVDGSIITGATSDLLGCSSSMLLNALKHLAGIDDAIHLLSPESIEPIQTLKTVHLGSSNPRLHTDEVLIALSVSAATDSNAQKALDQLKNLRGCDVHTTTILGSVDEGIFRNLGVLVTSDPKFQKNKLYQKREGHHHHHH	soluble
MSLVQSAVLGFPRIGPNRELKKATEGYWNGKITVDELFKVGKDLRTQNWKLQKEAGVDIIPSNDFSFYDQVLDLSLLFNVIPDRYTKYDLSPIDTLFAMGRGLQRKATETEKAVDVTALEMVKWFDSNYHYVRPTFSKTTQFKLNGQKPVDEFLEAKELGIHTRPVLLGPVSYLFLGKADKDSLDLEPLSLLEQLLPLYTEILSKLASAGATEVQIDEPVLVLDLPANAQAAIKKAYTYFGEQSNLPKITLATYFGTVVPNLDAIKGLPVAALHVDFVRAPEQFDEVVAAIGNKQTLSVGIVDGRNIWKNDFKKSSAIVNKAIEKLGADRVVVATSSSLLHTPVDLNNETKLDAEIKGFFSFATQKLDEVVVITKNVSGQDVAAALEANAKSVESRGKSKFIHDAAVKRRVASIDEKMSTRAAPFEQRLPEQQKVFNLPLFPTTTIGSFPQTKDIRINRNKFNKGTISAEEYEKFINSEIEKVIRFQEEIGLDVLVHGEPERNDMVQYFGEQINGYAFTVNGWVQSYGSRYVRPPIIVGDLSRPKAMSVKESVYAQSITSKPVKGMLTGPITCLRWSFPRDDVDQKTQAMQLALALRDEVNDLEAAGIKVIQVDEPALREGLPLREGTERSAYYTWAAEAFRVATSGVANKTQIHSHFCYSDLDPNHIKALDADVVSIEFSKKDDANYIAEFKNYPNHIGLGLFDIHSPRIPSKDEFIAKISTILKSYPAEKFWVNPDCGLKTRGWEETRLSLTHMVEAAKYFREQYKNEGHHHHHH	soluble
MSLVRNMTIASELGYLHVPEGVLIDLKKVDSLRDDEIVLMCTGSQGEPMAALSRMANGDHKVQVGHGDTVILASSLIPGNENAVFRIINGLTRLGARVVHGGNAKVHVSGHASAGELLYCYNVLKPKNVMPVHGEVRHLVANGALAVRTGVPADRVVLAEDGVVVDLVDGRASVVGAVPCGYVYVDGSSVGEITDAELKDRRILGEEGFVSVFAVVDSATGKVLAGPQILARGFAEDDKVFQDIQPEVVKALEDAIAGGATDTHQLQQVMRRVIGRWVSNRLRRRPMIVPVVVEAEGHHHHHH	soluble
MSLVSLPKLSAKIIIRLIYIYQIGISPILGHHCRFSITCSQYGINSIRNFGILKGCWKTCIRILKCHPFNKNDNTQEGHHHHHH	soluble
MSLWRLKFFLDFEKEEKWLEEMAWKGYQLESTTFGYTFRYTEPEDATIRIDHRVFSRKSEFINYCTLFEDSGWEHIAGNRWSGTYYFKKVNEESEDDIFSDPMSRAGKYKRLSKTEGHHHHHH	not soluble
MSLWRSTVARAPLDARERKNLVAHVQSAQAHESAQHAELAKLRASVNVMKAAEATPRNDEAGQDSAMIPMAGPGVRIILDDANAAPADELGDKDMRKLVNAVWQSGAEAVAINGHRIGPRTAIRSAGSAITVDYVSLSRPYVVEAIGSPQKLPAELADTPGGRWMTYLRDNSSITYQVTTKDRVSVPGSKASVSHARPHREGHHHHHH	soluble
MSLYATMESVRLQSEAQQLAEMILQSETAENYRNCYKRLQEDEEAGRIIRSFIKIKEQYEDVQRFGKYHPDYREISRKMREIKRELDLNDKVADFKRAENELQSILDEVSVEIGTAVSEHVKVPTGNPYFDGLSSCGGGCGSGGSCGCKVSEGHHHHHH	soluble
MSLYELQKVIKMDTETEDVPMFTVQNLPREDIYKTIGEMAIIVPMKNEKLHLVDGVLKAIPHKSPIIIVSNSKRKGPNRFKQEVDLVKHFCNLTHSKVIMIHQRDPGLAEAFRETGYEDILDEKGLVRSGKGEGMLIGIMLAKAIGAKYVGFVDADNYIPGAVNEYVKDYAAGFLMSESEYAMVRLHWRHKPKVSRGTLYFKKWGRVSEITNRYLNQLISEKTAFETTIMVTGNAGEHAMTMKLAEILPFSTGYSIEPYEIVYLLERFGSWENVEEFQDVFDQGIEIFQIETLNPHFHEDKGQEHVKEMVLLSLTTIYHSKLASERLKRQILEDLRMHGIIKEDEEPPKPRVMRPIKDIDIKKWMKTLESNQETLLRFDLEGHHHHHH	not soluble
